Measurements as given in patent publication US20100255485A1, “BIOMARKERS FOR THE ONSET OF NEURODEGENERATIVE DISEASES” (priority 2007, published 2010).

Assays:
[1] = tested on: embryonic motor neuron; settings: cited from earlier work
[2] = tested on: SOD1(G93A) mice; assay: Intramuscular Salubrinal into one hindlimb of SOD1(G93A) mice: ER stress, UPR, microglia activation, neuromuscular junctions; type: in vivo
[3] = tested on: motoneurons; settings: in vivo; cited from earlier work
[4] = tested on: murine models of inherited progressive motor degeneration; settings: CNTF and/or BDNF; cited from earlier work
[5] = tested on: SOD1(G93A) mice; assay: Intramuscular CNTF in SOD1(G93A) mice: stress responses in VUL MNs and microglia activation; type: in vivo
[6] = tested on: SOD1(G93A) mice; settings: intramuscular applications of CNTF; stated as known effect; cited from earlier work
[7] = early treatment P14 until P32, analyzed at P39
[8] = early treatment P14 until P32, analyzed at P53
[9] = late treatment P39 until P50, analyzed at P53
[10] = CNTF intramuscular from P28 to P40

In the case of IGF-1: neurotrophic factor, the “embryonic motor neuron survival in culture” value [1] is listed as “enhanced”.

With O=C(/C=C/c1ccccc1)NC(NC(=S)Nc1cccc2cccnc12)C(Cl)(Cl)Cl (centres unmarked) [Salubrinal] the “disease process during the Salubrinal treatments” value ([2]; early and late treatments taken together) was “partially reversed”, the “disease process during administration” value ([2]; early treatment P14 until P32) was “effectively arrested” and the UPR [2, 7] was “no evidence of a UPR”. The microglia activation [2, 7] was “no microglia activation”, the “levels of BiP” value ([2]; early treatment P14 until P32, analyzed at P39 (7 days after discontinuation)) was “low levels” and the “loss of synaptic vesicles at neuromuscular junctions” value [2, 8] was “no loss”. The microglia activation [2, 8] was “mild microglia activation”, the UPR ([2]; early treatment P14 until P32, analyzed at P53 (21 days after discontinuation)) was “early signs of a UPR” and the UPR [2, 9] was “mild UPR”. The “loss of neuromuscular junction synaptic vesicles” value [2, 9] was “no loss” and the microglia activation [2, 9] was “mild microglia activation”.

In the case of LIF: cytokine, the “embryonic motor neuron survival in culture” value [1] is given as “enhanced”.

B1: GDNF: neurotrophic factor (protein, UniProt P39905 78-211, looked up)
Glial cell line-derived …: SPDKQMAVLPRRERNRQAAAANPENSRGKGRRGQRGKNRGCVLTAIHLNVTDLGLGYETKEELIFRYCSGSCDAAETTYDKILKNLSRNRRLVSDKVGQACCRPIAFDDDLSFLDDNLVYHILRKHSAKRCGCI
In the case of B1, the “motoneuronal death occurring naturally during embryonic development” value [3] is listed as “reduction” and the “embryonic motor neuron survival in culture” value [1] is listed as “enhanced”.

B2: cardiotrophin-1: cytokine present in embryonic muscle (protein, UniProt Q16619 1-201, looked up)
Cardiotrophin-1: MSRREGSLEDPQTDSSVSLLPHLEAKIRQTHSLAHLLTKYAEQLLQEYVQLQGDPFGLPSFSPPRLPVAGLSAPAPSHAGLPVHERLRLDAAALAALPPLLDAVCRRQAELNPRAPRLLRRLEDAARQARALGAAVEALLAALGAANRGPRAEPPAATASAASATGVFPAKVLGLRVCGLYREWLSRTEGDLGQLLPGGSA
In the case of B2, the “motoneuronal death occurring naturally during embryonic development” value [3] is listed as “reduction” and the “embryonic motor neuron survival in culture” value [1] is listed as “enhanced”.

B3: CNTF: CNTF rat recombinant protein (Sigma Aldrich); specific stress-protecting factor (protein, UniProt P20294 1-200, looked up)
Ciliary neurotrophic factor: MAFAEQTPLTLHRRDLCSRSIWLARKIRSDLTALMESYVKHQGLNKNINLDSVDGVPVASTDRWSEMTEAERLQENLQAYRTFQGMLTKLLEDQRVHFTPTEGDFHQAIHTLMLQVSAFAYQLEELMVLLEQKIPENEADGMPATVGDGGLFEKKLWGLKVLQELSQWTVRSIHDLRVISSHQMGISALESHYGAKDKQM
For B3, the “motoneuronal death occurring naturally during embryonic development” value [3] is listed as “reduction”, the “protective effect in two murine models of inherited progressive motor degeneration” value [4] is listed as “protective effect” and the “embryonic motor neuron survival in culture” value [1] is listed as “enhanced”. The “upregulation of BiP in VUL MNs” value ([5]; CNTF intramuscular from P20 to P28, before disease onset) was “completely prevented”, the UPR/UPS reaction [5, 10] was “effectively prevented” and the “VUL MN BiP and Pi-elF2a signals” value [5, 10] was “normalized”. The “activation of microglia on the spinal cord side ipsilateral to the treatment” value [5, 10] was “reduced”, the “downregulation of stress-related protective pathways in VUL MNs” value [5, 10] was “counteracted” and the “axonal pathology in VUL MNs” value [6] was “effectively attenuates”. The disease progression [6] was “slows”.

B4: NT-3: member of the neurotrophin family (protein, UniProt P20783 139-257, looked up)
Neurotrophin-3: YAEHKSHRGEYSVCDSESLWVTDKSSAIDIRGHQVTVLGEIKTGNSPVKQYFYETRCKEARPVKNGCRGIDDKHWNSQCKTSQTYVRALTSENNKLVGWRWIRIDTSCVCALSRKIGRT
For B4, the “embryonic motor neuron survival in culture” value [1] is given as “enhanced”.

B5: BDNF: member of the neurotrophin family (protein, UniProt P23560 19-247, looked up)
Neurotrophic factor BDNF …: APMKEANIRGQGGLAYPGVRTHGTLESVNGPKAGSRGLTSLADTFEHVIEELLDEDQKVRPNEENNKDADLYTSRVMLSSQVPLEPPLLFLLEEYKNYLDAANMSMRVRRHSDPARRGELSVCDSISEWVTAADKKTAVDMSGGTVTVLEKVPVSKGQLKQYFYETKCNPMGYTKEGCRGIDKRHWNSQCRTTQSYVRALTMDSKKRIGWRFIRIDTSCVCTLTIKRGR
For B5, the “motoneuronal death occurring naturally during embryonic development” value [3] is listed as “reduction”, the “protective effect in two murine models of inherited progressive motor degeneration” value [4] is listed as “protective effect” and the “embryonic motor neuron survival in culture” value [1] is listed as “enhanced”.

B6: NT-4: member of the neurotrophin family (protein, UniProt P34130 81-210, looked up)
Neurotrophin-4: GVSETAPASRRGELAVCDAVSGWVTDRRTAVDLRGREVEVLGEVPAAGGSPLRQYFFETRCKADNAEEGGPGAGGGGCRGVDRRHWVSECKAKQSYVRALTADAQGRVGWRWIRIDTACVCTLLSRTGRA
In the case of B6, the “embryonic motor neuron survival in culture” value [1] is listed as “enhanced”.
